Assay results reported in patent publication US20220119492A1 (MEDIKINE, published 2022).
Bridge positions count the residues as written; N and C are the ends. Ends that are not written are not given here.

T1: human IL-2Rβ (CD122 protein, Fc Tag) (27-239) (human, UniProt P14784 27-239)
T1 construct: range 27-239; Bought protein; also called hu-IL-2Rβ subunit; IL-2Rβ subunit; not shown: Fc tag of the bought protein
T1 sequence (looked up): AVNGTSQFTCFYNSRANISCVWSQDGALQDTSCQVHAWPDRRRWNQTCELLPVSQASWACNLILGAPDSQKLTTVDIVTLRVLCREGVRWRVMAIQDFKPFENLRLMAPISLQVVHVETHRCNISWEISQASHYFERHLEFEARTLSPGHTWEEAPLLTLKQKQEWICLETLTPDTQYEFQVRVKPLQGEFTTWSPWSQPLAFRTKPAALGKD


target: T1, human IL-2Rβ (CD122 protein, Fc Tag) …; assay: phage ELISA competition
Method in brief: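 Values are IC50s derived from absorbance in a competitive binding ELISA, where a phage tracer competes with test ligands for human IL-2Rβ-Fc across a ligand dilution series. After 50 μL of phage tracer was added without washing for 45 min at 4° C, bound phage was detected with TMB for 1 to 15 min at 25° C. The reaction was then stopped and absorbance read at 450 nm.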

IC50	Binder
< 100 µM	WRILWMQQCWRSHVVNQCAL [SEQ ID NO 2769]
< 100 µM	WLPCWLAPLGDLCDMDMSAVMN [SEQ ID NO 2752]
< 100 µM	TEMWYPCWMAYQGELCDLDMTY [SEQ ID NO 2756]
< 100 µM	WWPCWIAQVGELCDLDGPGRPT [SEQ ID NO 2767]
< 100 µM	KGSWQPCWFAKLGELCDLHPTS [SEQ ID NO 2763]
< 100 µM	ARTQGWYDCLFAQVGELCDL [SEQ ID NO 2772]
< 100 µM	EPRWYPCWMAQMGELCDMEMSD (disulfide 7-16 (inferred)) [SEQ ID NO 2765]
< 100 µM	ARTWWPCWRAKLGELCDLVVPE [SEQ ID NO 2757]
< 100 µM	FHPCWRALLGELCDLETALGPS [SEQ ID NO 2773]
< 100 µM	HQGFYSCRLARLGELCDLDTGW [SEQ ID NO 2758]
< 100 µM	RLVYDCLFAQVGDLCEVIS [SEQ ID NO 2768]
< 100 µM	SYMHDCFMAQVGDLCDRFIS (disulfide 6-15 (inferred)) [SEQ ID NO 2780]
< 100 µM	WYPCEFAQLGELCDLLPFPYPA [SEQ ID NO 2779]
< 100 µM	WYPCWIAQVGELCDLDEVSHGR [SEQ ID NO 2770]
< 100 µM	WRPCWMAHLGDLCDLEMANENP [SEQ ID NO 2753]
< 100 µM	NRWWHPCWMARVGELCDLEPDA [SEQ ID NO 2777]
< 100 µM	AEYSGRYDCYIAKVGELCDI [SEQ ID NO 2775]
< 100 µM	WGGRYWCWMAKLGDLCDLEDEW [SEQ ID NO 2766]
< 100 µM	RPPWYPCWMARLGEVCDMDIML [SEQ ID NO 2761]
< 100 µM	WWPCWLAQLGELCDLEVNGSLI [SEQ ID NO 2755]
< 100 µM	AWDWYPCSVAALGEICDLDIQD [SEQ ID NO 2760]
< 100 µM	WYPCWLAQLGEVCDLDDGGGVF [SEQ ID NO 2754]
< 100 µM	SWRFLWQDCGRAHVGELCDL [SEQ ID NO 2776]
< 100 µM	WWPCWVAKLGELCDLEGDASRV [SEQ ID NO 2778]
< 100 µM	VDEFYPCSMAGLGELCDLERQN [SEQ ID NO 2759]
< 100 µM	TGEWWPCWVAEVGELCDLERGP [SEQ ID NO 2771]
< 100 µM	SQRWYPCWVAHLGELCDLEGVV [SEQ ID NO 2762]
< 100 µM	QTWYLPCWMAKLGELCDLGERD [SEQ ID NO 2764]
< 100 µM	LQIRKLWACRIDLVGPFCLL (disulfide 9-18 (inferred)) [SEQ ID NO 2774]

More lines, now with the values behind:

Binder	IC50
DMFTHRWYPCSMAKLGELCDLE [SEQ ID NO 2735]	< 100 µM
WYPCWLAQLGELCDAE [SEQ ID NO 2726]	< 100 µM
WLPCYMAQLGDLCDLE [SEQ ID NO 2721]	< 100 µM
EEQSRGFLPCWMALLGELCDLD [SEQ ID NO 2729]	< 100 µM
WYPCSIASLGELCDLE [SEQ ID NO 2720]	< 100 µM
MTDRAFWNPCWVARLGELCDLD [SEQ ID NO 2736]	< 100 µM
AMARRYLPCWIAKLGELCELD [SEQ ID NO 2739]	< 100 µM
LHAGRWNPCWLAQLGELCDLE [SEQ ID NO 2733]	< 100 µM
LPCWIAQLGDLCDLEPEPSPE [SEQ ID NO 2750]	< 100 µM
WKPCWMALLGELCDLE [SEQ ID NO 2727]	< 100 µM
YLERSRWYPCFIAQLGELCDLE [SEQ ID NO 2741]	< 100 µM
RWTQAQWYPCWLAQLGELCDLE [SEQ ID NO 2732]	< 100 µM
IERAWEWRPCWLASVGELCDLE (disulfide 10-19 (inferred)) [SEQ ID NO 2743]	< 100 µM
ARGEYRWFPCWMARLGELCDLE [SEQ ID NO 2740]	< 100 µM
NVTYTQWFPCWLARLGELCDLV (disulfide 10-19 (inferred)) [SEQ ID NO 2737]	< 100 µM
WSPCWMASLGDLCDLEETRQTE (disulfide 4-13 (inferred)) [SEQ ID NO 2748]	< 100 µM
WYPCWLAHLGELCDLDWKGRND [SEQ ID NO 2746]	< 100 µM

Binder	IC50
MYPCWIAHLGELCDLD [SEQ ID NO 2719]	< 100 µM
RYPCWIAQLGELCDLD [SEQ ID NO 2717]	< 100 µM
WYPCWLASLGEVCDLE [SEQ ID NO 2723]	< 100 µM
WYPCWRAQLGELCDLVDLGSHL [SEQ ID NO 2747]	< 100 µM
VASERFYPCWIARLGELCDVE [SEQ ID NO 2744]	< 100 µM
WHPCWMAQVGEVCDLD [SEQ ID NO 2722]	< 100 µM
WWPCSIARLGQLCDLD [SEQ ID NO 2724]	< 100 µM
LSSKGWYPCWKARLGDLCDLE (disulfide 9-18 (inferred)) [SEQ ID NO 2734]	< 100 µM
RYPCWRAKLGELCDLD [SEQ ID NO 2728]	< 100 µM
WLPCWRAQLGQLCDLD [SEQ ID NO 2715]	< 100 µM
WYPCWMARMGELCDLE [SEQ ID NO 2714]	< 100 µM
WTPCWIAQLGELCDLEGRHGTV [SEQ ID NO 2749]	< 100 µM
ESEGRGWYPCWNALLGELCDLE [SEQ ID NO 2731]	< 100 µM
LFPCWLAQLGELCDLE [SEQ ID NO 2716]	< 100 µM
LGSKRQWYPCWVAHLGELCDLE [SEQ ID NO 2730]	< 100 µM
FRVSRDWFPCWMAQLGEVCDLE [SEQ ID NO 2742]	< 100 µM
FYPCWAAHLGDLCDLEYQEAGP [SEQ ID NO 2751]	< 100 µM
